Source: patent publication US11655308B2, “HM-3 fusion protein and application thereof” (TASLY BIOPHARMACEUTICALS CO., LTD., priority 2017, dated 2023)
“And” between values parts separate entries of the source, which are not always exact repeats. Equal values may be shown once.

Experiment: Pharmacokinetics after single subcutaneous injection (double-antibody sandwich ELISA)
Protocol: (1) 18 SD rats (half male and half female) were purchased and fed for one week.
(2) Rats were divided into 3 groups, half male and half female, and weight of rats were recorded respectively.
The blood was centrifuged at 12000 rpm/min to take 200 μL of supernatant, then the supernatant was diluted with PBS solution according to a ratio of 1:3, and finally placed in an EP tube and stored in a −80° C. refrigerator.
(4) Biological samples were measured by double-antibody sandwich ELISA.
(1) Coating, HM-3 monoclonal antibody was diluted with a coating buffer (CBS) in certain concentration, added to an ELISA plate and coated overnight.
(2) Plate washing, the coating buffer was discarded, and the plate was washed by PBST for 3 times, and then dried by patting.
(3) Sealing, a blocking buffer was added for sealing at 37.5° C., the plate washing process was repeated and the plate was dried by patting.
(4) Addition of samples to be measured, the samples to be measured were added to the ELISA plate with multiple wells, and then incubated at 37.5° C.; the plate washing process was repeated and the plate was dried by patting.
(5) Addition of a secondary antibody, the secondary antibody diluted proportionally was added for incubation at 37.5° C. The plate washing process was repeated and the plate was dried by patting.
(6) Addition of the enzyme-labeled secondary antibody for reaction, the HRP-labeled secondary antibody which was diluted by 5% skim milk powder solution according to certain proportion was added for incubation at 37.5° C. The plate washing process was repeated and the plate was dried by patting.
(7) Addition of a substrate, a TMB substrate in certain volume L was added for reaction in the dark.
(8) Termination of the reaction, a certain amount of stop buffer was added to terminate the reaction.
(9) Detection, read OD450 nm with a microplate reader.

Substance: mIgG4-Fc-(GGGGS)3-HM-3 [TSL-4]
- Plasma concentration (12.5 mg/kg sc, 16.00 h, single rats No. 1-5): 2587 ng/mL and 3719 ng/mL and 6053 ng/mL and 4976 ng/mL and 14124 ng/mL
- Plasma concentration (12.5 mg/kg sc, 20.00 h, Mean): 5407 ng/mL
- Plasma concentration (12.5 mg/kg sc, 20.00 h, single rats No. 1-5): 1900 ng/mL and 3086 ng/mL and 5605 ng/mL and 3962 ng/mL and 12480 ng/mL
- Plasma concentration (12.5 mg/kg sc, 24.00 h, Mean): 4248 ng/mL
- Plasma concentration (12.5 mg/kg sc, 24.00 h, single rats No. 1-5): 1822 ng/mL and 2513 ng/mL and 2747 ng/mL and 3966 ng/mL and 10192 ng/mL
- Plasma concentration (12.5 mg/kg sc, 28.00 h, Mean): 1907 ng/mL
- Plasma concentration (12.5 mg/kg sc, 28.00 h, single rats No. 1-5): 336 ng/mL and 1653 ng/mL and 766 ng/mL and 2703 ng/mL and 4077 ng/mL
- Plasma concentration (12.5 mg/kg sc, 41.00 h, Mean): 746 ng/mL
- Plasma concentration (12.5 mg/kg sc, 41.00 h, single rats No. 1-5): 241 ng/mL and 700 ng/mL and 417 ng/mL and 1185 ng/mL and 1189 ng/mL
- Plasma concentration (12.5 mg/kg sc, 53.00 h, Mean): 402 ng/mL
- Plasma concentration (12.5 mg/kg sc, 53.00 h, single rats No. 1-5): 131 ng/mL and 542 ng/mL and 247 ng/mL and 734 ng/mL and 357 ng/mL
- Plasma concentration (12.5 mg/kg sc, 65.00 h, Mean): 330 ng/mL
- Plasma concentration (12.5 mg/kg sc, 65.00 h, single rats No. 1-5): 127 ng/mL and 396 ng/mL and 181 ng/mL and 648 ng/mL and 299 ng/mL
- Plasma concentration (12.5 mg/kg sc, 77.00 h, Mean): 261 ng/mL
- Plasma concentration (12.5 mg/kg sc, 77.00 h, single rats No. 1-5): 64 ng/mL and 285 ng/mL and 160 ng/mL and 505 ng/mL and 290 ng/mL
- AUC 0-77 (12.5 mg/kg single sc): 116.1901 µg·h/mL
- AUC 0-∞ (12.5 mg/kg single sc): 128.4302 µg·h/mL
- MRT 0-77 (12.5 mg/kg single sc): 18.248 h
- MRT 0-∞ (12.5 mg/kg single sc): 20.882 h
- Tmax (12.5 mg/kg single sc): 7 ± 0.707 h
- ka (12.5 mg/kg single sc): 0.247
- t½ka (absorption half-life) (12.5 mg/kg single sc): 3.249 h
- t½ke (elimination half-life) (12.5 mg/kg single sc): 32.321 ± 4.935 h
- α, ke (12.5 mg/kg single sc): 0.149
- Plasma concentration (37.5 mg/kg sc, 0.50 h, Mean): 1402 ng/mL
- Plasma concentration (37.5 mg/kg sc, 0.50 h, single rats No. 1-5): 1180 ng/mL and 1202 ng/mL and 1816 ng/mL and 1534 ng/mL and 1277 ng/mL
- Plasma concentration (37.5 mg/kg sc, 1.00 h, Mean): 2169 ng/mL
- Plasma concentration (37.5 mg/kg sc, 1.00 h, single rats No. 1-5): 1974 ng/mL and 1514 ng/mL and 2370 ng/mL and 1151 ng/mL and 3838 ng/mL
- Plasma concentration (37.5 mg/kg sc, 3.00 h, Mean): 13349 ng/mL
- Plasma concentration (37.5 mg/kg sc, 3.00 h, single rats No. 1-5): 23044 ng/mL and 13341 ng/mL and 9819 ng/mL and 5861 ng/mL and 14678 ng/mL
- Plasma concentration (37.5 mg/kg sc, 5.00 h, Mean): 19696 ng/mL
- Plasma concentration (37.5 mg/kg sc, 5.00 h, single rats No. 1-5): 36313 ng/mL and 18726 ng/mL and 10891 ng/mL and 12949 ng/mL and 19600 ng/mL
- Plasma concentration (37.5 mg/kg sc, 6.00 h, Mean): 27920 ng/mL
- Plasma concentration (37.5 mg/kg sc, 6.00 h, single rats No. 1-5): 44277 ng/mL and 20173 ng/mL and 20450 ng/mL and 16158 ng/mL and 38541 ng/mL
- Plasma concentration (37.5 mg/kg sc, 7.00 h, Mean): 35272 ng/mL
- Plasma concentration (37.5 mg/kg sc, 7.00 h, single rats No. 1-5): 64960 ng/mL and 21479 ng/mL and 38009 ng/mL and 22359 ng/mL and 29552 ng/mL
- Plasma concentration (37.5 mg/kg sc, 8.00 h, Mean): 30478 ng/mL
- Plasma concentration (37.5 mg/kg sc, 8.00 h, single rats No. 1-5): 62784 ng/mL and 25446 ng/mL and 31080 ng/mL and 12944 ng/mL and 20137 ng/mL
- Plasma concentration (37.5 mg/kg sc, 10.00 h, Mean): 24736 ng/mL
- Plasma concentration (37.5 mg/kg sc, 10.00 h, single rats No. 1-5): 44656 ng/mL and 21055 ng/mL and 21153 ng/mL and 10006 ng/mL and 26810 ng/mL
- Plasma concentration (37.5 mg/kg sc, 12.00 h, Mean): 19172 ng/mL
- Plasma concentration (37.5 mg/kg sc, 12.00 h, single rats No. 1-5): 36576 ng/mL and 17149 ng/mL and 17361 ng/mL and 8919 ng/mL and 15856 ng/mL
- Plasma concentration (37.5 mg/kg sc, 16.00 h, Mean): 11084 ng/mL
- Plasma concentration (37.5 mg/kg sc, 16.00 h, single rats No. 1-5): 13903 ng/mL and 7767 ng/mL and 12942 ng/mL and 6885 ng/mL and 13925 ng/mL
- Plasma concentration (37.5 mg/kg sc, 20.00 h, Mean): 7721 ng/mL
- Plasma concentration (37.5 mg/kg sc, 20.00 h, single rats No. 1-5): 9514 ng/mL and 3313 ng/mL and 9915 ng/mL and 4605 ng/mL and 11259 ng/mL
- Plasma concentration (37.5 mg/kg sc, 24.00 h, Mean): 4523 ng/mL
- Plasma concentration (37.5 mg/kg sc, 24.00 h, single rats No. 1-5): 4801 ng/mL and 3205 ng/mL and 5617 ng/mL and 3076 ng/mL and 5918 ng/mL
- Plasma concentration (37.5 mg/kg sc, 28.00 h, Mean): 2285 ng/mL
- Plasma concentration (37.5 mg/kg sc, 28.00 h, single rats No. 1-5): 1952 ng/mL and 2730 ng/mL and 3953 ng/mL and 1833 ng/mL and 959 ng/mL
- Plasma concentration (37.5 mg/kg sc, 41.00 h, Mean): 920 ng/mL
- Plasma concentration (37.5 mg/kg sc, 41.00 h, single rats No. 1-5): 780 ng/mL and 912 ng/mL and 1824 ng/mL and 779 ng/mL and 303 ng/mL
- Plasma concentration (37.5 mg/kg sc, 53.00 h, Mean): 407 ng/mL
- Plasma concentration (37.5 mg/kg sc, 53.00 h, single rats No. 1-5): 431 ng/mL and 466 ng/mL and 510 ng/mL and 391 ng/mL and 237 ng/mL
- Plasma concentration (37.5 mg/kg sc, 65.00 h, Mean): 312 ng/mL
- Plasma concentration (37.5 mg/kg sc, 65.00 h, single rats No. 1-5): 357 ng/mL and 301 ng/mL and 370 ng/mL and 291 ng/mL and 243 ng/mL
- Plasma concentration (37.5 mg/kg sc, 77.00 h, Mean): 215 ng/mL
- Plasma concentration (37.5 mg/kg sc, 77.00 h, single rats No. 1-5): 269 ng/mL and 253 ng/mL and 169 ng/mL and 244 ng/mL and 138 ng/mL
- AUC 0-77 (37.5 mg/kg single sc): 166.338 µg·h/mL
- AUC 0-∞ (37.5 mg/kg single sc): 176.11 ± 39.59645 µg·h/mL
- MRT 0-77 (37.5 mg/kg single sc): 13.988 h
- MRT 0-∞ (37.5 mg/kg single sc): 15.755 h
- Tmax (37.5 mg/kg single sc): 7 ± 0.707 h
- ka (37.5 mg/kg single sc): 0.116
- t½ka (absorption half-life) (37.5 mg/kg single sc): 3.079 h
- t½ke (elimination half-life) (37.5 mg/kg single sc): 34.356 ± 1.578 h and 34.355 h
- α, ke (37.5 mg/kg single sc): 0.197
- pharmacokinetic characteristics (4.17, 12.5, 37.5 mg/kg sc): consistent with linear pharmacokinetic characteristics
